B1: sp¦P11177¦ODPB_HUMAN (protein, UniProt P11177 31-359, looked up)
Pyruvate dehydrogenase E1 …: LQVTVRDAINQGMDEELERDEKVFLLGEEVAQYDGAYKVSRGLWKKYGDKRIIDTPISEMGFAGIAVGAAMAGLRPICEFMTFNFSMQAIDQVINSAAKTYYMSGGLQPVPIVFRGPNGASAGVAAQHSQCFAAWYGHCPGLKVVSPWNSEDAKGLIKSAIRDNNPVVVLENELMYGVPFEFPPEAQSKDFLIPIGKAKIERQGTHITVVSHSRPVGHCLEAAAVLSKEGVECEVINMRTIRPMDMETIEASVMKTNHLVTVEGGWPQFGVGAEICARIMEGPAFNFLDAPAVRVTGADVPMPYAKILEDNSIPQVKDIIFAIKKTLNI
B2: sp¦Q9H3N1¦TMX1_HUMAN (protein, UniProt Q9H3N1 27-280, looked up)
Thioredoxin-related …: RRSNVRVITDENWRELLEGDWMIEFYAPWCPACQNLQPEWESFAEWGEDLEVNIAKVDVTEQPGLSGRFIITALPTIYHCKDGEFRRYQGPRTKKDFINFISDKEWKSIEPVSSWFGPGSVLMSSMSALFQLSMWIRTCHNYFIEDLGLPVWGSYTVFALATLFSGLLLGLCMIFVADCLCPSKRRRPQPYPYPSKKLLSESAQPLKKVEEEQEADEEDVSEEEAESKEGTNKDFPQNAIRQRSLGPSLATDKS
B3: sp¦P48449¦LSS_HUMAN (protein, UniProt P48449 2-732, looked up)
Lanosterol synthase: TEGTCLRRRGGPYKTEPATDLGRWRLNCERGRQTWTYLQDERAGREQTGLEAYALGLDTKNYFKDLPKAHTAFEGALNGMTFYVGLQAEDGHWTGDYGGPLFLLPGLLITCHVARIPLPAGYREEIVRYLRSVQLPDGGWGLHIEDKSTVFGTALNYVSLRILGVGPDDPDLVRARNILHKKGGAVAIPSWGKFWLAVLNVYSWEGLNTLFPEMWLFPDWAPAHPSTLWCHCRQVYLPMSYCYAVRLSAAEDPLVQSLRQELYVEDFASIDWLAQRNNVAPDELYTPHSWLLRVVYALLNLYEHHHSAHLRQRAVQKLYEHIVADDRFTKSISIGPISKTINMLVRWYVDGPASTAFQEHVSRIPDYLWMGLDGMKMQGTNGSQIWDTAFAIQALLEAGGHHRPEFSSCLQKAHEFLRLSQVPDNPPDYQKYYRQMRKGGFSFSTLDCGWIVSDCTAEALKAVLLLQEKCPHVTEHIPRERLCDAVAVLLNMRNPDGGFATYETKRGGHLLELLNPSEVFGDIMIDYTYVECTSAVMQALKYFHKRFPEHRAAEIRETLTQGLEFCRRQQRADGSWEGSWGVCFTYGTWFGLEAFACMGQTYRDGTACAEVSRACDFLLSRQMADGGWGEDFESCEERRYLQSAQSQIHNTCWAMMGLMAVRHPDIEAQERGVRCLLEKQLPNGDWPQENIAGVFNKSCAISYTSYRNIFPIWALGRFSQLYPERALAGHP
B4: sp¦Q9NVH1¦DJC11_HUMAN (protein, UniProt Q9NVH1 2-559, looked up)
DnaJ homolog subfamily C …: ATALSEEELDNEDYYSLLNVRREASSEELKAAYRRLCMLYHPDKHRDPELKSQAERLFNLVHQAYEVLSDPQTRAIYDIYGKRGLEMEGWEVVERRRTPAEIREEFERLQREREERRLQQRTNPKGTISVGVDATDLFDRYDEEYEDVSGSSFPQIEINKMHISQSIEAPLTATDTAILSGSLSTQNGNGGGSINFALRRVTSAKGWGELEFGAGDLQGPLFGLKLFRNLTPRCFVTTNCALQFSSRGIRPGLTTVLARNLDKNTVGYLQWRWGIQSAMNTSIVRDTKTSHFTVALQLGIPHSFALISYQHKFQDDDQTRVKGSLKAGFFGTVVEYGAERKISRHSVLGAAVSVGVPQGVSLKVKLNRASQTYFFPIHLTDQLLPSAMFYATVGPLVVYFAMHRLIIKPYLRAQKEKELEKQRESAATDVLQKKQEAESAVRLMQESVRRIIEAEESRMGLIIVNAWYGKFVNDKSRKSEKVKVIDVTVPLQCLVKDSKLILTEASKAGLPGFYDPCVGEEKNLKVLYQFRGVLHQVMVLDSEALRIPKQSHRIDTDG
B5: sp¦O15173¦PGRC2_HUMAN (protein, UniProt O15173 1-223, looked up)
Membrane-associated …: MAAGDGDVKLGTLGSGSESSNDGGSESPGDAGAAAEGGGWAAAALALLTGGGEMLLNVALVALVLLGAYRLWVRWGRRGLGAGAGAGEESPATSLPRMKKRDFSLEQLRQYDGSRNPRILLAVNGKVFDVTKGSKFYGPAGPYGIFAGRDASRGLATFCLDKDALRDEYDDLSDLNAVQMESVREWEMQFKEKYDYVGRLLKPGEEPSEYTDEEDTKDHNKQD
B6: sp¦O14776¦TCRG1_HUMAN (protein, UniProt O14776 1-1098, looked up)
Transcription elongation …: MAERGGDGGESERFNPGELRMAQQQALRFRGPAPPPNAVMRGPPPLMRPPPPFGMMRGPPPPPRPPFGRPPFDPNMPPMPPPGGIPPPMGPPHLQRPPFMPPPMSSMPPPPGMMFPPGMPPVTAPGTPALPPTEEIWVENKTPDGKVYYYNARTRESAWTKPDGVKVIQQSELTPMLAAQAQVQAQAQAQAQAQAQAQAQAQAQAQAQAQAQAQAQAQAQAQAQAQAQAQAQAQAQAQAQAQVQAQVQAQVQAQAVGASTPTTSSPAPAVSTSTSSSTPSSTTSTTTTATSVAQTVSTPTTQDQTPSSAVSVATPTVSVSTPAPTATPVQTVPQPHPQTLPPAVPHSVPQPTTAIPAFPPVMVPPFRVPLPGMPIPLPGVAMMQIVSCPYVKTVATTKTGVLPGMAPPIVPMIHPQVAIAASPATLAGATAVSEWTEYKTADGKTYYYNNRTLESTWEKPQELKEKEKLEEKIKEPIKEPSEEPLPMETEEEDPKEEPIKEIKEEPKEEEMTEEEKAAQKAKPVATAPIPGTPWCVVWTGDERVFFYNPTTRLSMWDRPDDLIGRADVDKIIQEPPHKKGMEELKKLRHPTPTMLSIQKWQFSMSAIKEEQELMEEINEDEPVKAKKRKRDDNKDIDSEKEAAMEAEIKAARERAIVPLEARMKQFKDMLLERGVSAFSTWEKELHKIVFDPRYLLLNPKERKQVFDQYVKTRAEEERREKKNKIMQAKEDFKKMMEEAKFNPRATFSEFAAKHAKDSRFKAIEKMKDREALFNEFVAAARKKEKEDSKTRGEKIKSDFFELLSNHHLDSQSRWSKVKDKVESDPRYKAVDSSSMREDLFKQYIEKIAKNLDSEKEKELERQARIEASLREREREVQKARSEQTKEIDREREQHKREEAIQNFKALLSDMVRSSDVSWSDTRRTLRKDHRWESGSLLEREEKEKLFNEHIEALTKKKREHFRQLLDETSAITLTSTWKEVKKIIKEDPRCIKFSSSDRKKQREFEEYIRDKYITAKADFRTLLKETKFITYRSKKLIQESDQHLKDVEKILQNDKRYLVLDCVPEERRKLIVAYVDDLDRRGPPPPPTASEPTRRSTK
B7: sp¦Q15758¦AAAT_HUMAN (protein, UniProt Q15758 1-541, looked up)
Neutral amino acid …: MVADPPRDSKGLAAAEPTANGGLALASIEDQGAAAGGYCGSRDQVRRCLRANLLVLLTVVAVVAGVALGLGVSGAGGALALGPERLSAFVFPGELLLRLLRMIILPLVVCSLIGGAASLDPGALGRLGAWALLFFLVTTLLASALGVGLALALQPGAASAAINASVGAAGSAENAPSKEVLDSFLDLARNIFPSNLVSAAFRSYSTTYEERNITGTRVKVPVGQEVEGMNILGLVVFAIVFGVALRKLGPEGELLIRFFNSFNEATMVLVSWIMWYAPVGIMFLVAGKIVEMEDVGLLFARLGKYILCCLLGHAIHGLLVLPLIYFLFTRKNPYRFLWGIVTPLATAFGTSSSSATLPLMMKCVEENNGVAKHISRFILPIGATVNMDGAALFQCVAAVFIAQLSQQSLDFVKIITILVTATASSVGAAGIPAGGVLTLAIILEAVNLPVDHISLILAVDWLVDRSCTVLNVEGDALGAGLLQNYVDRTESRSTEPELIQVKSELPLDPLPVPTEEGNPLLKHYRGPAGDATVASEKESVM

Test system: human HL60 cells
Assay: SWATH-MS proteomics, differential protein representation, akirin2 KO vs WT HL60 cells
Type: cell-based
Settings: SWATH-MS, akirin2 KO vs WT HL60 cells, under-represented in KO
Procedure, shortened: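 Proteins from WT and akirin2 KO HL60 cells (n=3 biological replicates) were FASP trypsin-digested and analyzed by SWATH-MS DIA with variable windows against an IDA-derived spectral library. Identifications at 1% global FDR; quantities normalized to total area sums of all detected proteins.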

Molecule | Fold Change | Log (Fold Change)
B1 | 0.7344 | -0.1341
B2 | 0.7331 | -0.1348
B3 | 0.7416 | -0.1298
B4 | 0.7368 | -0.1326
B5 | 0.7369 | -0.1326
B6 | 0.7373 | -0.1323

Same assay, conditions: akirin2 KO vs WT HL60 cells; sheet "Under-represented in KO"

Molecule | Fold Change | Log (Fold Change)
B7 | 0.3333 | -0.4771
